Measurements: the nanobody polyreactivity screen of Harvey et al. (2022)

assay: yeast display, Sf9 membrane polyspecificity reagent, FACS + sequencing; frameworks hold sequencing errors
Method in brief: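 A nanobody's polyreactivity label depends on the gate it was sorted from. Yeast display cells were stained with 10% biotinylated, detergent-solubilized Sf9 membrane reagent for 1 hour at 4 °C, enriched on streptavidin microbeads and sorted by FACS. The low and high (top ~1%) gates were set on anti-HA fluorescence for expression and streptavidin fluorescence for reagent binding.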

Sequence	polyreactivity (PSR sort gate)
QVQLVESGGGLVQAGGSLRLSCAASGRTSLAYSMGWYRQAPGKERELVAAINTRGGSTYYADSVKGRFTISRDNAKNTVYLQINSLKPEDTAVYYCAKGPRLYFTPDKAHWKYDSWGQGTQVTVSS	low polyreactivity
QVQLVESGGGLVQAGGSLRLSCAASGSILDRYVMGWYRQAPGNGRELVSAITWSGSRTYYADSVKGRFTISRDNAKNTVYLQMNSLKPEDTAVYYCAKVIRRSSTLGNHYYWGQGTQVTVSS	high polyreactivity
QVQLVESGGGLVQAGGSLRLSCAASGIIFSDYAMGWYRQAPGKERELVATITRSVRTSYADSVKGRFTISRDNAKNTVYLQMNSLKPEDTAVYYCNADFVGAVIAYDYLGQGTQVTVSS	low polyreactivity
QVQLVESGGGLVQAGGSLRLSCAASGSTIYTYVMGWYRPAPGKERELVAAISWSGSSTYYADSVKGRFTISRDNAKNTVYLQMNSLKPEDTAVYYCNAQYRRGWWGVEYGYWGQGTQVTVSS	low polyreactivity
QVQLVESGGGLVQAGGSLRLSCAASGSIFASYAMGWYRQAPGKERELVAAITTSGGRTYYADSVKGRFTISRDNAKNTVYLQMNSLKPEDTAVYYCARRPRGGRYAYYSWGQGTQVTVSS	high polyreactivity
QVQLVESGGGVVQAGGSLRLSCAGSGFTFIYYAMGWYRQAPGTERELVAAITTSRGRTDSADSVKGRVTISRDNAKNTVYLQMNSLKPEDTAVYYCNAVVYTKYYFIPWYPYDYWGHGTQVTVSS	high polyreactivity
QVHLVQSGGGLVQAGGSLRISSAASGSTFSPYDMGRYRQAPGKEREMVAGITDGAITTYADSVKGSFTISRDNANNTVYLQMNSLKPEDTEVYYCAAFLWAKYHPGYYYWGQGTQETVSS	low polyreactivity
QVQLVESGGGLVQAGGSLRLSCAASGYIISYNTMGWYRPAPGKERELVASIRWGGGRTYYADSVKGRFTISRDNAKNTVYLQLNSLKPEDTAVYYCNVKSSRFLDVGRMEYWGQGTQVTVSS	high polyreactivity
QVQLVESGGGLVQAGGSLRLSCAASGSIFYDYTMGWSRQAPGKERELVAAINSGGSTNYADSVKGRFTISRDNAKNTVYLQMNSLKPEDTAVYYCAAEPQFAFLDSRLWGSDYWGQGTQVTVSS	low polyreactivity
QVQLVESGGGLVQAGGSLRLSCAASGSISYFNDMGWYRQAPGKERELVAAIRDSGGITYADSVKGRFTISRDNAKYTVYLQMNSLKPEDTAVYYCATYGNEIYDYWGQGTQVTVSS	low polyreactivity
QVQLVESGGGLVQAGGSLRLSCAASGRTFYFNTMGWDRPAPGKERELVAAIDERGDSTYYADSVKGRFTISRDNAKNTVYLQMNSLKPEDTAVYYCATDWTLEVYYGRYIAKYEYGSWGQGTQVTVSS	low polyreactivity
QVQLVESGGGLVQAGGSLLLSCAASGIIFTRYVMGWYRQAPGKERELVATIRIGGSTTYADSVKGRFTISRDNAKITVYLQMYSLKPEDTAVYYCAADTWYITTYGGAGSYAYGFYYWGQGTQVTVSS	low polyreactivity
QVQLVESGGGLVQAGGSLRLSCAASGLTFKSYAMGWNRQAPGKERELVAVISSSGGRTYYADSVKGRFTISRDNAKNTVYLQMNSLKPEDTAVYYCAADGSYGKWGGHAMYYLGQGTQVTVSS	high polyreactivity
QVQLVEYGAALVKAGGSLRLSCAPSGSIFDFYVMGWYRQAPGKERELVAAISSGGSTYYADSVKGRFTISRDNAKNTVYLQMNSLKPEDSAVYYCAAYPEYVSGAWYDYWGLGTQVTVSS	low polyreactivity
QVHLVETGGGLVQAGGSLRLSCAASGYIFGWYAMGWYRQAPGKERELVAAITRGGSTNYADSVKGRFTISRDNAKNTVYLLMNSLKPEDTAVYYCNTEDWAVGSPEVEYEYDYWGQGTQVTVSS	low polyreactivity
QDQLVESGGGLVQAGGSLRLSCAASGRTISYYAMGWYRQAPGKERELVAAISGGGSTNYADSVKGRFTISRDNAKNTVYLQMNSLKPEDTAVYYCNARVYGVFRRRVNYWGQGTQVTVSS	high polyreactivity
QVQLVESGGGLVQAGGSLRLSCAASGSIFNYNMGWYRQAPGKERELVAAVSTNYADTVKGRFTISRDNAKNTVYLQMNSLKPEDTAVYYCGVTPEKSGDEYDYGGQGTQVTVSS	low polyreactivity
